# Data taken from publication PMC9719539, “Single-molecule characterization of subtype-specific β1 integrin mechanics” (Nature Communications, 2022).
# Test system: BJ-5ta cells
# Assay: Percentage of spread cells / cell spreading on TGT surfaces
# Type: cell-based, human
# Conditions: 1 h after seeding
# Experimental: Glass coverslips were densely PEGylated to minimize non-specific interactions such as the binding of cell-secreted extracellular matrix proteins. Coverslips cleaned by piranha etching solution (a 3:1 mixture of sulfuric acid and hydrogen peroxide) were incubated in silanization solution (UCT, 1760-24-3; 2% aminosilane and 5% acetic acid in methanol) for 30 min and reacted with a mixture of Polyethylene glycol (PEG) with and without biotin (1:19, 150 mg/ml; Laysan Bio, Biotin-PEG-SVA-5000 and MPEG-SVA-5000) for 4 h. Surfaces were washed thoroughly and dried using nitrogen gas after each step. A 3D-printed dish (PLA) or a silicon gasket (Grace Bio Labs, 103280) was attached to the coverslip to form a dish. Neutravidin (Thermo Fisher scientific, 31000; 0.4 mg/ml) was added to the dish for 10 min and washed out thoroughly. […]
# The cells were gently harvested by washing in PBS for 1 min, incubating with 0.05% trypsin for 3 min, and then neutralizing with cell culture medium (FBS 10%). […] A Nikon Eclipse Ti microscope equipped with Xenon arc lamp, Nikon perfect focus system, custom total internal reflection fluorescence microscopy (TIRFM) module, and custom reflection interference contrast microscopy (RICM) module was driven by Elements software. […] Images were recorded using an electron-multiplying charge-coupled device (EMCCD; Andor iXon 888). […]
molecule,measurement,value
"vitronectin: physiologic macromolecular ligand with RGD motif (protein, UniProt P04004 20-478, looked up) Vitronectin: DQESCKGRCTEGFNVDKKCQCDELCSYYQSCCTDYTAECKPQVTRGDVFTMPEDEYTVYDDGEEKNNATVHEQVGGPSLTSDLQAQSKGNPEQTPVLKPEEEAPAPEVGASKPEGIDSRPETLHPGRPQPPAEEELCSGKPFDAFTDLKNGSLFAFRGQYCYELDEKAVRPGYPKLIRDVWGIEGPIDAAFTRINCQGKTYLFKGSQYWRFEDGVLDPDYPRNISDGFDGIPDNVDAALALPAHSYSGRERVYFFKGKQYWEYQFQHQPSQEECEGSSLSAVFEHFAMMQRDSWEDIFELLFWGRTSAGTRQPQFISRDWHGVPGQVDAAMAGRIYISGMAPRPSLAKKQRFRHRNRKGYRSQRGHSRGRNQNSRRPSRATWLSLFSSEESNLGANNYDDYRMDWLVPATCEPIQSVFFFSGDKYYRVNLRTRRVDTVDPPYPRSIAQYWLGCPAPGHL",cell morphology (in words),elongated with irregular lamellipodia
